Data: article doi:10.1101/2022.04.25.489347

Experiments:
[1] = target: AtFKBP43 (1-136) (Arabidopsis thaliana) (UniProt F4J9Q6); assay: pull-down
[2] = target: AtFKBP43 (1-164) (Arabidopsis thaliana) (UniProt F4J9Q6); assay: pull-down
Chain of AtFKBP43 (1-164) (Arabidopsis thaliana) (F4J9Q6 1-164): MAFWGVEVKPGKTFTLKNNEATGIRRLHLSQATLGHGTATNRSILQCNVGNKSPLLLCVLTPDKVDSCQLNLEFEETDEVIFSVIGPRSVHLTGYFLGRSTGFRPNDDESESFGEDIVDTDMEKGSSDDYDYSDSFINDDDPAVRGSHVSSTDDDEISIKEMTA

Chain of AtFKBP43 (1-136) (Arabidopsis thaliana) (F4J9Q6 1-136): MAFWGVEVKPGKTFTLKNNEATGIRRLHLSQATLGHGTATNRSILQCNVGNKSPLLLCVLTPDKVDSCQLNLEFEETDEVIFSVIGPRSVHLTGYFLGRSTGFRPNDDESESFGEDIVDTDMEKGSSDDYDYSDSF

Substance | NaCl concentration up to which the complex was stable [1] | NaCl concentration up to which the complex was stable [2]
H3/H4 tetramer (from UniProt P84233 1-136; P62799 1-103) (complex) | 1 M | 1 M
H2A/H2B dimer (from UniProt P06897 1-130; P02281 1-126) (complex) | 0.3 M | 0.3 M
